{
  "source": "paper PMC7480041",
  "about": "(bioRxiv, 2020)",
  "binders": {"B1": {"name": "mBG21 (antibody, V domains shown)", "VH": "QIQLVQSGPELKKPGETVKISCKASGYTFTDYSMHWVKQAPGKGSKWMGWINTETGEPTYADDFKGRFAFSLETSASTAYLQINNLKNEDTATYFCALRRWGQGTLVTVSS", "VL": "IVMTQTPKFLLVSAGDRVTITCKASQSVSNDVAWFQQKPGQSPKKLLIYFASNRYTGVPDRFTGSGYGTDFTFTITTVQAEDLAVYFCQQDYSSPWTFGGGTKLEIK"}},
  "target": "truncated recombinant SARS-CoV-2 nucleocapsid (N) protein, AA133–419 (SARS-CoV-2 (isolate USA-WA1/2020), UniProt P0DTC9)",
  "test": "ELISA",
  "data": [
    {"binder": "B1", "values": [
      {"measurement": "corrected average ELISA signal", "result": 1.43}
    ]}
  ]
}
